Results: patent US20220153822A1 (ALYTAS THERAPEUTICS, published 2022)

T1: Perilipin epitope 5 peptide AKPSLLSRVGALTNT (SEQ ID NO. 332) (human, Biotin-PEG Spacer and GGSGGS Linker (SEQ ID NO. 438) at the N-terminus, or Biotin-PEG Spacer and AAAAA Linker (SEQ ID NO. 439) at the C-terminus)
T1 construct: Two biotinylated variants were used for selection and ELISA; On the peptide array it stood without biotin; also called target peptide
T1 peptide: AKPSLLSRVGALTNT

T2: Perilipin epitope 6 peptide EVRVPWLHSLAAAQE (SEQ ID NO. 333) (human, Biotin-PEG Spacer and GGSGGS Linker (SEQ ID NO. 438) at the N-terminus, or Biotin-PEG Spacer and AAAAA Linker (SEQ ID NO. 439) at the C-terminus)
T2 construct: Two biotinylated variants were used for selection and ELISA; On the peptide array it stood without biotin; also called target peptide
T2 peptide: EVRVPWLHSLAAAQE

B1: Antibody No. 13 (antibody, V domains shown)
VH: QVQLVQSGGGLVQPGRSLRLSCAASGFTFDDYAMHWVRQAPGKGLEWVSGISWNSGSIGYADSVKGRFTISRDNAKNSLYLQMNSLRAEDTALYYCAKEDGSYALDYWGQGTLVTVSS
VL: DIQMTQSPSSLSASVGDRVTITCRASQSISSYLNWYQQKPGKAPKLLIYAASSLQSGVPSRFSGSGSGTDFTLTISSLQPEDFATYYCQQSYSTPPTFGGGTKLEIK
notes: human IgG1, lambda or kappa light chain; also called 432-G09
B2: Antibody No. 34 (antibody, V domains shown)
VH: QVQLVESGGGLVQPGRSLRLSCAASGFTFDDYAMHWVRQAPGKGLEWVSGISWNSGSIGYADSVKGRFTISRDNAKNSLYLQMNSLRAEDTALYYCAKEGGDSDFDYWGQGTLVTVSS
VL: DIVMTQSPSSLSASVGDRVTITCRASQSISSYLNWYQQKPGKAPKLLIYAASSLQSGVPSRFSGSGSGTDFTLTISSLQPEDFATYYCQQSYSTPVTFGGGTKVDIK
notes: human IgG1, lambda or kappa light chain; also called 447-B01
B3: Antibody No. 35 (antibody, V domains shown)
VH: QVQLVQSGAEVKKPGTTVKISCKVSGYSFTDYYMHWVQQAPGKGLEWMGLVDPEDGETLYAEKFQGRVTITVDTSTDTAYMELSSLRSEDTAVYYCAAEPQMVQGPSPPDYWGQGTLVTVSS
VL: QSALTQPASVSGSPGQSITISCTGTSSDVGGYSYVSWYQQHPGKAPKLMIYDVSNRPSGVSNRFSGSKSGNTASLTISGLQAEDEADYYCSSYTSSSTLLFGGGTKLTVL
notes: human IgG1, lambda or kappa light chain; also called 447-E03
B4: Antibody No. 36 (antibody, V domains shown)
VH: EVQLVESGGGVVQPGRSLRLSCAASGFTFSSYAMHWVRQAPGKGLEWVAVISYDGSNKYYADSVKGRFTISRDNSKNTLYLQMNSLRAEDTAVYYCARDPLYGMDVWGQGTLVTVSS
VL: QSVLTQPPSASGSPGQSVTISCTGTSSDVGNYNYVSWFQQHPGKAPKLMIYEVSKRPSGVPDRFSGSKSGNTASLTVSGLQAEDEADYYCASYADSNNLYVFGTGTKLTVL
notes: human IgG1, lambda or kappa light chain; also called 447-B03
B5: Antibody No. 37 (antibody, V domains shown)
VH: QVQLVQSGAEVKKPGASVKVSCKASGYTFTSYYMHWVRQAPGQGLEWMGIINPSGGSTSYAQKFQGRVTMTRDTSTSTVYMELSSLRSEDTAVYYCARDSYYDSSGYYYADAFDIWGQGTMVTVSS
VL: QSVLTQPPSVSGAPGQRVTISCTGSSSNIGAGYDVHWYQQLPGTAPKLLIYGNSNRPSGVPDRFSGSKSGTSASLAITGLQAEDEADYYCQSYDSSLSGDVVFGGGTKLTVL
notes: human IgG1, lambda or kappa light chain; also called 447-F02
B6: Antibody No. 38 (antibody, V domains shown)
VH: EVQLVQSGAEVKKPGASVKVSCKASGYTFTSYYMHWVRQAPGQGLEWMGIINPSGGSTSYAQKFQGRVTMTRDTSTSTVYMELSSLRSEDTAVYYCARNVPGDYEVGFDYWGQGTLVTVSS
VL: QSVLTQPPSVSGAPGQRVTISCTGSSSNIGAGYDVHWYQQLPGTAPKLLIYGNSNRPSGVPDRFSGSKSGTSASLAITGLQAEDEADYYCQSYDSSLSAVVFGGGTKLTVL
notes: human IgG1, lambda or kappa light chain; also called 447-A05
B7: Antibody No. 14 (antibody, V domains shown)
VH: QVQLVESGGGLVQPGRSLRLSCAASGFTFDDYAMHWVRQAPGKGLEWVSGISWNSGSIGYADSVKGRFTISRDNAKNSLYLQMNSLRAEDTALYYCAKEGYGNDAFDIWGQGTMVTVSS
VL: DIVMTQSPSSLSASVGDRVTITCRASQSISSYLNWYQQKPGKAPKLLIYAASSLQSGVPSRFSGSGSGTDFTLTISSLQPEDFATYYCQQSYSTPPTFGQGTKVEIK
notes: human IgG1, lambda or kappa light chain; also called 432-H10
B8: Antibody No. 28 (antibody, V domains shown)
VH: QVQLVQSGGGVVQPGRSLRLSCAASGFTFSSYAMHWVRQAPGKGLEWVAVISYDGSNKYYADSVKGRFTISRDNSKNTLYLQMNSLRAEDTAVYYCARDSGVVMDYWGQGTLVTVSS
VL: QSALTQPASVSGSPGQSITISCTGTSSDVGGYNYVSWYQQHPGKAPKLMIYDVSNRPSGVSNRFSGSKSGNTASLTISGLQAEDEADYYCSSYTSSSTLVFGGGTKVTVL
notes: human IgG1, lambda or kappa light chain; also called 447-F08
B9: Antibody No. 30 (antibody, V domains shown)
VH: EVQLVQSGGGLVQPGGSLRLSCAASGFTFSSYAMSWVRQAPGKGLEWVSAISGSGGSTYYADSVKGRFTISRDNAKNSLYLQMNSLRAEDTAVYYCARVRVSDGRFDYWGQGTLVTVSS
VL: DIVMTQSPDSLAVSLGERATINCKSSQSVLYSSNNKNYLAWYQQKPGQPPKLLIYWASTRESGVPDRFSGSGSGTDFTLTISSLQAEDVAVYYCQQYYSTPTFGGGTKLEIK
notes: human IgG1, lambda or kappa light chain; also called 448-E04
B10: Antibody No. 31 (antibody, V domains shown)
VH: EVQLLESGGGVVQPGRSLRLSCAASGFTFSSYAMHWVRQAPGKGLEWVAVISYDGSNKYYADSVKGRFTISRDNSKNTVSLQMSSLRADDTAIYYCVKDTILIDWGQGTLVTVSS
VL: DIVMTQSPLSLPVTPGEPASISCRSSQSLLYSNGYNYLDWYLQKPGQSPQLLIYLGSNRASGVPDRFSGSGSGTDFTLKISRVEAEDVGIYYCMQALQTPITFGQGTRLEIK
notes: human IgG1, lambda or kappa light chain; also called 448-E06

Target: T1, Perilipin epitope 5 peptide …
Test: phage display selection and ELISA on biotinylated target peptide

Binding result, binds:
B1, B2, B3, B4, B5, B6, B7

Target: T2, Perilipin epitope 6 peptide …
Test: as above

Binding result, binds:
B8, B9, B10
